Assay results: the RNAGym collection of RNA variant scans (doi:10.7554/elife.90254)

B1: OR4K15 (parent)
chain: GUUAACGGUCAUAGGCCAUGGAAACUAGGAGCACCAUUUCGCUGCCAGUGAAGAAAUGAACAAAGAAAAUCUGGGCCAGGCAGGCAUCAAAAGAAAUAGUCUUGCGCUCAACCAGAAAGUCUGUAAUCAUUUUAAGGGUA

Variants of: B1
Test: self-cleavage, relative activity (ratio to wild type); higher = more cleavage; in vitro, sequencing; the parent is a self-cleaving ribozyme

Variant | self-cleavage
A18G A86G | 1.99
A18G U124G | 0.94
A18G U124A | 0.9
A18G A116G | 1.17
A18G A116U | 0.75
A18G A126G | 0.8
A18G U38A | 1.27
A18G U38C | 0.46
A18U A94U | 1.11
A18U A30U | 1.57
A18G C61U | 1.18
C17U A64G | 0.65
G14A U43C | 0.99
A18U A66C | 1.22
A18U A66G | 1.5
A18G G65U | 1.18
A18U A24U | 1.36
C16U U122C | 1.91
C16G G83A | 1.21
C16U A90G | 1.55
A18U A114U | 0.08
A18U A114C | 0.03
A18C A62C | 1.25
A18C A62G | 1.36

Variant | self-cleavage
U19A | 1.16
U19A A96U | 1.41
C16A U124A | 0.4
A18G A96C | 1.68
A18G A96G | 1.44
A18G A96U | 1.84
G14A G106A | 0.02
G15U A68C | 1.71
G14U A90G | 1.34
A18G A117U | 1.01
C16A A126G | 1.2
A18U A55G | 1.85
A18U A55U | 1.49
C16U U70C | 0.79
C16A U127C | 0.13
G14U A94G | 1.84
G15C U49C | 1.78
C16G A54G | 0.89
C17U C109A | 0.2
C16A A55G | 0.37
A18G U70C | 0.57
A18U U38A | 1.02
A18C A118G | 1.22
G14U A24G | 1.23

Variant | self-cleavage
G15A A116G | 0.52
A18G G75C | 0.16
A18U A96G | 1.62
A18U A96U | 1.88
A18C U131C | 0.73
A18U C105U | 0.28
C17A G20A | 1.56
A18G U132G | 1.71
A18G C101A | 0.06
G14A A114U | 0.01
C16A A56G | 0.41
C16G A59U | 1.17
G14C A18G | 1.59
U19A A22G | 1.09
A18G A24C | 0.96
A18U U72C | 0.1
A18G A33G | 0.97
G14U C105U | 0.07
A18G A91G | 1.41
A18G G53U | 1.66
G15U A78G | 0.14
A18C A22G | 1.85
A18C A22U | 1.71
C16A A134G | 0.96

Variant | self-cleavage
A18G A125G | 0.94
U19A A63G | 1.59
G14A A22G | 0.51
G14A A129U | 0.41
G14U U37C | 1.24
G14A A36G | 1.17
A18G A67G | 1.03
A18G A67U | 1.79
A18G A62U | 2.16
A18G A62G | 1.54
G15C U39C | 1.26
G15A A114G | 0.06
A18G G73U | 0.23
A18G A22U | 1.95
A18G A22G | 1.01
C17U A69G | 0.62
A18G U49C | 1.43
G14C U103C | 1.13
A18U A56G | 1.48
G14A A59G | 1.27
A18G A23G | 1.01
G15C A24G | 0.88
A18G A118G | 1.34
A18G A118C | 0.27

Variant | self-cleavage
A18U A67G | 1.53
A18C A117G | 1.24
G15C A68C | 2.44
C17U U38C | 1.28
U19A A78G | 0.31
C16G A135G | 0.74
G14A A118G | 0.59
C17U A33G | 1.07
C17U A91G | 0.42
C16U U43A | 0.54
U19A A56G | 1.6
A18G C109U | 0.82
A18G C109A | 0.34
G15A C113U | 0.03
A18U U108C | 0.01
C17U G83A | 1.07
C16G U49C | 0.92
C17U A110U | 1.55
G15A U131C | 0.87
G15A A36U | 1.01
G14U A111G | 0.05
C16G A86G | 0.51
C16G | 0.85
C16U | 1.25

Variant | self-cleavage
C16A | 1.69
A18U A52U | 1.6
A18G A36U | 1.39
G14A A95G | 1.24
G15A A92G | 1.65
G14A A47G | 0.81
C16U A68G | 1.42
C16U A95G | 1.21
C16U A27G | 0.94
A18U U39G | 0.98
A18U U39A | 1.05
A18U U39C | 1.81
A18G U130A | 1.84
A18G U130C | 1.01
A18G U130G | 1.61
U19A A52G | 1.35
A18U A23U | 1.88
A18U A23G | 1.26
A18U G58A | 1.09
C17U A67G | 1.26
A18G A47G | 1.14
G14A A55G | 1.58
G14A U72C | 0.22
C17A U43A | 1.18

Variant | self-cleavage
A18G A52U | 1.21
A18G A52G | 1.67
A18G U57A | 1
G15A A94G | 1.73
A18G G93U | 2.69
G15C A94G | 0.33
G14A A91G | 1.67
U19A A82U | 0.34
G14A A67G | 1.66
G14A A89G | 0.65
A18C C71U | 0.35
A18G U87C | 1.27
A18G U87A | 1.14
A18C A60G | 2.54
U19A A55G | 1.79
A18C G28U | 1.37
G14A U19C | 1.44
C17A G73A | 0.16
C17G A54G | 0.86
A18G U100C | 2.34
G14U A82U | 0.13
C17U A51G | 0.85
A18G C46U | 1.34
G15C A111U | 0.11

Variant | self-cleavage
A18U U100C | 2.18
C16G A68U | 0.89
C17U A62G | 0.91
G15A A54G | 1.41
A18G A114C | 0.05
U19A A91G | 1.06
U19A A91C | 1.85
C17U A89G | 1.23
C16G A66G | 1.14
G15A A111G | 0.01
G14A U70C | 0.96
G14A U127C | 0.28
U19A A69G | 1.14
A18U A116U | 0.15
A18U A116G | 0.63
C17G U39A | 1.07
A18U C113A | 0.05
G14A A33G | 0.87
A18G A134G | 1.8
A18U U37G | 1.12
G14A A92G | 0.96
G15A U102C | 1.98
G14U A135C | 1.41
C17U A27C | 0.44

Variant | self-cleavage
A18C A23G | 0.81
U19A A62G | 1.32
U19A A36G | 1.19
U19A A59G | 1.12
C16U A69U | 0.66
C16U A69G | 0.74
C16U A82U | 0.21
A18C A54G | 0.89
G14U A66G | 0.9
A18G A111G | 0.03
A18U A91G | 1.16
A18U A91U | 1.96
A18G A69U | 1.94
A18G A78U | 0.35
A18C A82G | 0.44
C16G U37C | 1.55
G15U A62G | 2.71
A18C C113U | 0.12
G14C A30G | 1.66
A18G C85U | 0.98
A18U A47U | 0.78
A18G U103C | 1.04
C17U G74A | 0.13
A18G A82G | 0.98

Variant | self-cleavage
A18G A110G | 0.21
U19A A23G | 1.28
A18G G115U | 0.14
U19A A98G | 0.5
G15C A86U | 1.92
A18U U120C | 1.1
G15A A27G | 1.23
G14C A51G | 1.01
G15A A56G | 1.45
A18G U97C | 1.42
G15U A126U | 0.79
A18U G104A | 0.05
G14U A22G | 1.12
A18G U19G | 0.71
G14A A51G | 1.18
G14U A116U | 0.11
G14C A82G | 0.32
A18U U127A | 2.41
U19A A54G | 1.15
U19A A54U | 1.8
C17U A22G | 1.48
C17U U37C | 1
G15A A47G | 1.33
G14A U130C | 0.45

Variant | self-cleavage
A18G A54G | 0.96
A18G A54U | 1.25
C16A A18G | 1.18
A18U A60G | 0.68
C16U G80A | 0.1
C16G A69G | 1.02
G14A A56G | 1.1
A18G A60G | 0.97
G14U A92G | 1.2
C16G A78G | 0.55
C16G A78U | 0.66
C16A G80U | 0.12
G14C A55G | 1.34
G14U A96U | 1.13
A18U U102C | 0.98
A18U U133A | 1.57
C16U A117G | 1.84
C17U U87A | 1.37
C17U U87C | 0.7
G14C A118U | 0.78
U19A A86G | 2.13
A18G G83A | 1.54
A18G G80U | 0.14
A18G A68U | 1.33

Variant | self-cleavage
U19A A90G | 0.53
C16G U127A | 2.18
C16U A111U | 0.16
G15A U70A | 0.96
C17U A116G | 0.47
A18C U19C | 1.5
C17U A54G | 1.02
C16U C32G | 0.15
A18G C32U | 1.17
A18U A98C | 1.13
G14A A117G | 1.22
G15C U43C | 1.93
A18G A89U | 1.48
G14U A126G | 1.1
G15A U139C | 1.3
C16U U102C | 2.01
U19A A94G | 1.89
G15C A91U | 0.88
A18U A117U | 0.76
G14A U26A | 1.2
G14A U122A | 1.16
C17U A117G | 1.84
A18U C128U | 1.55
G14U G48A | 1.52

Variant | self-cleavage
A18U A92U | 1.25
C17G G79A | 0.18
C16A A60G | 0.51
G15C A67G | 1.63
A18G U120C | 1.16
A18G U120A | 2.34
A18U A90G | 0.53
A18G C42G | 1.02
A18U U70A | 1.35
A18G U108C | 0.02
A18G U108A | 0.03
A18C U87C | 0.67
A18U A27G | 1.13
A18G U122A | 0.94
C17A A117G | 1.53
G14A A54U | 1.55
G14U A63G | 1.14
A18G A94G | 1
C16A A89G | 1.37
C16U A94G | 0.94
G14U A33U | 1.38
U19A A33G | 0.62
U19A A111U | 0.09
C16U A18U | 1.52

Variant | self-cleavage
C16U U97C | 1.23
A18U A86G | 1.01
A18U A126G | 1.86
A18G | 1.16
A18U | 1.11
A18C | 0.89
G14C A59G | 1.46
C16U U132C | 1.11
A18G C40U | 1.66
A18U G48U | 1.24
C16U A52G | 0.37
U19A A89U | 0.85
C16U A129C | 1.3
A18G U139A | 1.83
G14U A118U | 0.4
A18U U49A | 1.67
A18U U49C | 1.47
A18G A51G | 1.86
A18G A51U | 1.15
C17A U108C | 0.02
A18U A111U | 0.12
A18U A111G | 0.03
